Legend:
[1] = biological target: mutant IgG4 with Pro222 (human); assay: AUC; sedimentation velocity, 40,000 rpm, SEDFIT c(s) analysis with integration of the monomer and dimer peaks; IgG4(Ser222) 0.5-8 mg/ml in PBS-50, PBS-137 and PBS-250 in H2O at 20 °C and in PBS-137 in 2H2O at 6, 20 and 30 °C; IgG4(Pro222) 0.5-2.5 mg/ml in PBS-137 in H2O at 20 °C; pH 7.4; dimer to monomers
[2] = biological target: wild-type human-mouse chimera IgG4 B72.3 with Ser222 (human); assay: as above

Row | percent dimer [1] | stoichiometry N [1] | Kd [2] | percent dimer [2] | stoichiometry N [2] | Molecule
1 | 2 to 3% | 2 | – | – | – | mutant IgG4 with Pro222 (antibody)
2 | – | – | 600 to 3000 µM | 1 to 3% | 2 | wild-type human-mouse chimera IgG4 B72.3 with Ser222 (antibody, V domains shown) VH: QVQLQQSDAELVKPGASVKISCKASGYTFTDHAIHWAKQKPEQGLEWIGYISPGNDDIKYNEKFKGKATLTADKSSSTAYMQLNSLTSEDSAVYFCKRSYYGHWGQGTTLTVSS VL: DIQMTQSPASLSVSVGETVTITCRASENIYSNLAWYQQKQGKSPQLLVYAATNLADGVPSRFSGSGSGTQYSLKINSLQSEDFGSYYCQHFWGTPYTFGGGTRLEIK

Source: paper PMC4110284
